# From publication PMC5723990, “Calmodulin regulates Cav3 T-type channels at their gating brake” (The Journal of Biological Chemistry, 2017)
# Read-outs that look alike come from different tables or passages of the source. No end group written: not given here.
# Tests used:
# [1] = Aggregation of peptides in buffers; format: physicochemical; details: observation during CD (PBS: 10 mM sodium phosphate pH 7.3, 137 mM NaCl) and ITC sample preparation
# Experimental: CD measurements were performed using a Jasco-715 spectropolarimeter (Jasco Instruments, Easton, MD), using the following parameters: 250–190-nm range, 50 nm/min speed, with 1-s response time, 1-nm bandwidth, and 100-millidegree sensitivity at room temperature. 16–25 accumulations were gathered depending on signal quality. Recordings were made in a 1-mm cuvette, in 10 mM sodium phosphate buffer with 0.1 mM added CaCl2, and used as baseline, which was subtracted from each recording. For CaM and CaMB peptide spectra, the same solution of 10 μM CaM was scanned before stock (1 mM) peptide was added in incremental amounts before being scanned again. The resulting spectra were subtracted (e.g. CaM and CaMB peptide-CaM alone) to extract the spectrum corresponding to the change associated with adding the peptide. Every recording was an average of at least 16 accumulations and subsequently corrected for protein concentration (converted to units of mean residue ellipticity). These were smoothed and exported into ASCII format for analysis with Excel and either SOMCD or Dichroweb K2d algorithm (http://dichroweb.cryst.bbk.ac.uk)^6 ([92], [93]). […]
# (§1) Heat gain or heat requirements in the sample cell (for exothermic binding or endothermic binding, respectively) correspond to the direction of the injection peaks measured in the isothermal titration calorimeter (MicroCal iTC200, Malvern Instruments, UK). […]
# Ca^2+–CaM = experiment: Gel mobility-shift assay with CaM; format: binding, rat; details: molar ratio of CaMB peptide to CaM for saturating gel-mobility shift; native PAGE, 0.1 mM CaCl2, ratios 0.5–4×, incubated ≥1 h at 4 °C; three replicate experiments
# Experimental: (§2) We followed protocols that we have described previously in an analysis of CaM binding with snail or human L-type calcium channel peptides in the presence of 0.1 or 0.5 mM CaCl2-containing solution ([9]).
# (§3) Rat CaM was purified using phenyl-Sepharose 6 Fast-Flow (High Sub) (GE Healthcare), packed to ∼10 ml volume, by gravity flow at 4 °C. Codon-optimized CaM was cloned in pET9d, a T7 Escherichia coli expression vector. CaM was transformed into BL21 DE3 E. coli and grown at 37 °C and 200 rpm to OD of 0.4–0.6 (for Luria Broth, LB) or 0.5–0.9 (for SuperBroth, SB), at which point samples were induced by 1 mM added isopropyl β-D-1-thiogalactopyranoside and grown for another 4 (for SB) to 6 (for LB) h. Robust expression of soluble CaM was confirmed by SDS-PAGE. Cells were collected by centrifugation at ∼4000 × g, then lysed in high-salt buffer (0.1 M Tris-Cl, pH 7.5, 0.5 M NaCl, 0.5 M ammonium sulfate, 1 mM DTT) using an Avestin Emulsiflex homogenizer at 15,000–20,000 p.s.i. with jacketed water cooling, through which the cells were passed ∼3× on average. The cell lysate was clarified by centrifugation at 20,000 rpm in an SS-34 rotor (∼50,000 × g) at 4 °C for 30 min. To the cleared lysate, CaCl2 was added to a final concentration of 10 mM. The lysate was then applied to the gravity phenyl-Sepharose column equilibrated with the same high salt buffer (and 1 mM CaCl2). […]
# [2] = target: T1, Ca^2+–CaM (wild-type calmodulin) (Rattus norvegicus, UniProt P0DP29); experiment: Isothermal titration calorimetry of CaMB peptides with wild-type CaM; details: ITC, one-set-of-sites fit, 25 °C, 10 mM HEPES pH 7.0, 0.1 mM CaCl2 (b23 says 0.5 mM CaCl2), mean of n = 3 (Fig. 6A), read-out: Binding affinity (Ka)
# T1 construct: His tag; made in house; host or cells: E. coli BL21 DE3 (pET9d)
# Experimental: as §2
# as §3, with “average.” for “average. The cell lysate was clarified by centrifugation at 20,000 rpm in an SS-34 rotor (∼50,000 × g) at 4 °C for 30 min. To the cleared lysate, CaCl2 was added to a final concentration of 10 mM. The lysate was then applied to the gravity phenyl-Sepharose column equilibrated with the same high salt buffer (and 1 mM CaCl2).”
# as §1
# [3] = target: T2, C-CaM (C-lobe of CaM, 74-aa construct) (Homo sapiens, UniProt P0DP23); experiment: Isothermal titration calorimetry with C-lobe of CaM; details: ITC, one-set-of-sites fit, 25 °C, 10 mM HEPES pH 7.0, 0.1 mM CaCl2, mean of n = 3 (Fig. 6A), read-out: Binding affinity (Ka)
# T2 construct: partial CaMs: N-CaM(1–74), C-CaM(75–148); His tag; made in house; host or cells: bacteria (E. coli)
# Source text: (§4) We have used human CaM and associated CaM mutants that we have described before ([9]), CaM(1–44) and partial CaMs: N-CaM(1–74), C-CaM(75–148), and CaMs that simulate CaM binding in the absence of calcium, by substitution of glutamate residues in the two calcium-binding sites in the N-terminal lobe (CaM12) or C-terminal lobe (CaM34), or mutation of all four calcium-binding sites (CaM1234) of CaM. CaM–GFP used for Western blotting is a construct consisting of GFP fused to the C terminus of CaM expressed in pcDNA3.1 (Cell Signaling Technology) ([83]). EGFP expression vector was obtained by subcloning EGFP from pEGFP-C1 (BD Biosciences) into the multiple cloning site of pcDNA3.1. The CaM1234 overexpression construct contained bicistronic marker mRFP (to generate a red color) ([46]) to distinguish from the channel expression with bicistronic EGFP (to generate a green color). The CaM1234 overexpression construct also containing CaM shRNA knockdown includes two short hairpin sequences described above to knock down CaM (Calm1,2,3 genes) ([46][–][48]). […]
# as §1
# [4] = target: T3, N-CaM (N-lobe of CaM, 74-aa construct) (Homo sapiens, UniProt P0DP23); experiment: Isothermal titration calorimetry with N-lobe of CaM; details: ITC, one-set-of-sites fit, 25 °C, 10 mM HEPES pH 7.0, 0.1 mM CaCl2, mean of n = 3 (Fig. 6A), read-out: Binding affinity (Ka)
# T3 construct: partial CaMs: N-CaM(1–74), C-CaM(75–148); His tag; made in house; host or cells: bacteria (E. coli)
# Source text: as §4, §1
# [5] = target: calmodulin (CaM), wild type, bacterially expressed (rat) (UniProt P0DP29); experiment: ITC; 10 mM HEPES pH 7.0, 0.1 mM CaCl2 (results: 0.5 mM CaCl2), 25 °C, one-set-of-sites model, mean of three replicates
# [6] = target: calmodulin (CaM), wild type, bacterially expressed (rat) (UniProt P0DP29); experiment: as above; remark: listed apart in the source
# [7] = target: CaM_(1234), CaM with all four Ca^2+-binding sites mutated (human) (UniProt P0DP23); experiment: as above
# [8] = target: calmodulin (CaM), wild type, bacterially expressed (rat) (UniProt P0DP29); experiment: native gel or EMSA; gel-mobility shift of CaM with 0.5–4× molar ratios of peptide; native gels with 4 M urea, 0.1 mM CaCl2 in running buffer; incubation ≥1 h at 4 °C in 150 mM NaCl, 50 mM Tris-Cl pH 7.5, 1 mM CaCl2
# [9] = target: C-CaM(75–148), C-terminal lobe of CaM (human) (UniProt P0DP23); experiment: ITC; 10 mM HEPES pH 7.0, 0.1 mM CaCl2 (results: 0.5 mM CaCl2), 25 °C, one-set-of-sites model, mean of three replicates
substance,measurement,setting,value
YEEIFQYVCHILRKAKRRALGLYQAL [Cav3.3],aggregation,[1],severe aggregation issues in PBS
same,[CaMB Peptide] for Complete shift,Ca^2+–CaM,> 4.0 x
YEELLKYLVYILRKAARRLAQVSRAA [Cav3.1],aggregation,[1],severe aggregation issues in PBS
same,[CaMB Peptide] for Complete shift,Ca^2+–CaM,1.5 x
YEELLKYVGHIFRKVKRRSLRLYARW [Cav3.2],Kd,[2],0.187 µM
same,Kd,[3],0.691 µM
same,Kd,[4],0.0311 µM
YSELLKLVAQVYRRVKRKVIKTYYKT [LCav3],Kd,[2],0.0124 µM
human Cav3.1 CaMB peptide (26-mer gating brake peptide),Kd,[5],0.036 µM
same,Kd,[6],0.0427 µM
same,stoichiometry N,[6],1
same,Kd,[7],0.543 µM
same,CaMB peptide to CaM ratio required for a saturating gel-mobility shift (× (peptide to CaM ratio)),[8],1.5
human Cav3.2 CaMB peptide (26-mer gating brake peptide),Kd,[5],0.196 µM
same,stoichiometry N,[6],1
same,Kd,[9],0.69 µM
same,CaMB peptide to CaM ratio required for a saturating gel-mobility shift (× (peptide to CaM ratio)),[8],1.5
human Cav3.3 CaMB peptide (26-mer gating brake peptide),Kd,[6],0.383 µM
same,stoichiometry N,[6],1
same,CaMB peptide to CaM ratio required for a saturating gel-mobility shift (× (peptide to CaM ratio)),[8],> 4
snail LCav3 CaMB peptide (26-mer gating brake peptide),Kd,[5],0.01 µM
same,stoichiometry N,[6],1
same,fold reduced affinity compared with wild-type CaM,[7],349 fold
same,CaMB peptide to CaM ratio required for a saturating gel-mobility shift (× (peptide to CaM ratio)),[8],1
